B1: modified TCR consisting of β2 and α2 (TCR)
TCR alpha: SVCLFTDFDSQTNVSQSKDSDVYITDKTVLDMRSMDFKSNSAVAWSNKSDFACANAFNNSIIPEDTFFPSPESSCDVKLVEKSFETDTNLNFQNLSVIGFRILLLKVAGFNLLMTLRLWSS
TCR beta: ATLVCLATGFYPDHVELSWWVNGKEVHSGVSTDPQPLKEQPALNDSRYCLSSRLRVSATFWQNPRNHFRCQVQFYGLSENDEWTQDRAKPVTQIVSAEAWGRADCGFTSESYQQGVLSATILYEILLGKATLYAVLVSALVLMAMVKRKDSRG
B2: modified TCR consisting of β2 and α9 (TCR)
TCR alpha: FNNSIIPEDTFFPSPESSCDVKLVEKSFETDTNLNFQNLSVIGFRILLLKVAGFNLLMTLRLWSS
TCR beta: B1 TCR beta
B3: modified TCR consisting of β2 and α5 (TCR)
TCR alpha: LDMRSMDFKSNSAVAWSNKSDFACANAFNNSIIPEDTFFPSPESSCDVKLVEKSFETDTNLNFQNLSVIGFRILLLKVAGFNLLMTLRLWSS
TCR beta: B1 TCR beta
B4: modified TCR consisting of β2 and α4 (TCR)
TCR alpha: DVYITDKTVLDMRSMDFKSNSAVAWSNKSDFACANAFNNSIIPEDTFFPSPESSCDVKLVEKSFETDTNLNFQNLSVIGFRILLLKVAGFNLLMTLRLWSS
TCR beta: B1 TCR beta
B5: modified TCR consisting of β2 and α6 (TCR)
TCR alpha: KSNSAVAWSNKSDFACANAFNNSIIPEDTFFPSPESSCDVKLVEKSFETDTNLNFQNLSVIGFRILLLKVAGFNLLMTLRLWSS
TCR beta: B1 TCR beta
B6: modified TCR consisting of β2 and α10 (TCR)
TCR alpha: IPEDTFFPSPESSCDVKLVEKSFETDTNLNFQNLSVIGFRILLLKVAGFNLLMTLRLWSS
TCR beta: B1 TCR beta
B7: modified TCR consisting of β2 and α7 (TCR)
TCR alpha: SNKSDFACANAFNNSIIPEDTFFPSPESSCDVKLVEKSFETDTNLNFQNLSVIGFRILLLKVAGFNLLMTLRLWSS
TCR beta: B1 TCR beta
B8: modified TCR consisting of β2 and α8 (TCR)
TCR alpha: CANAFNNSIIPEDTFFPSPESSCDVKLVEKSFETDTNLNFQNLSVIGFRILLLKVAGFNLLMTLRLWSS
TCR beta: B1 TCR beta
B9: modified TCR consisting of β1 and α1 (TCR)
TCR alpha: YQLRDSKSSDKSVCLFTDFDSQTNVSQSKDSDVYITDKTVLDMRSMDFKSNSAVAWSNKSDFACANAFNNSIIPEDTFFPSPESSCDVKLVEKSFETDTNLNFQNLSVIGFRILLLKVAGFNLLMTLRLWSS
TCR beta: SEAEISHTQKATLVCLATGFYPDHVELSWWVNGKEVHSGVSTDPQPLKEQPALNDSRYCLSSRLRVSATFWQNPRNHFRCQVQFYGLSENDEWTQDRAKPVTQIVSAEAWGRADCGFTSESYQQGVLSATILYEILLGKATLYAVLVSALVLMAMVKRKDSRG
B10: modified TCR consisting of β2 and α1 (TCR)
TCR alpha: B9 TCR alpha
TCR beta: B1 TCR beta
B11: modified TCR of the combination of βCR and αCR (TCR)
TCR alpha: NIQNPDPAVYQLRDSKSSDKSVCLFTDFDSQTNVSQSKDSDVYITDKTVLDMRSMDFKSNSAVAWSNKSDFACANAFNNSIIPEDTFFPSPESSCDVKLVEKSFETDTNLNFQNLSVIGFRILLLKVAGFNLLMTLRLWSS
TCR beta: EDLKNVFPPEVAVFEPSEAEISHTQKATLVCLATGFYPDHVELSWWVNGKEVHSGVSTDPQPLKEQPALNDSRYCLSSRLRVSATFWQNPRNHFRCQVQFYGLSENDEWTQDRAKPVTQIVSAEAWGRADCGFTSESYQQGVLSATILYEILLGKATLYAVLVSALVLMAMVKRKDSRG
B12: modified TCR of the combination of βCR and α3 (TCR)
TCR alpha: NVSQSKDSDVYITDKTVLDMRSMDFKSNSAVAWSNKSDFACANAFNNSIIPEDTFFPSPESSCDVKLVEKSFETDTNLNFQNLSVIGFRILLLKVAGFNLLMTLRLWSS
TCR beta: B11 TCR beta
B13: modified TCR of the combination of βCR and α10 (TCR)
TCR alpha: B6 TCR alpha
TCR beta: B11 TCR beta
B14: modified TCR consisting of β2 and αCR (TCR)
TCR alpha: B11 TCR alpha
TCR beta: B1 TCR beta
B15: modified TCR of the combination of βCR and α5 (TCR)
TCR alpha: B3 TCR alpha
TCR beta: B11 TCR beta
B16: modified TCR of the combination of βCR and α1 (TCR)
TCR alpha: B9 TCR alpha
TCR beta: B11 TCR beta
B17: modified TCR of the combination of βCR and α9 (TCR)
TCR alpha: B2 TCR alpha
TCR beta: B11 TCR beta
B18: modified TCR of the combination of βCR and α7 (TCR)
TCR alpha: B7 TCR alpha
TCR beta: B11 TCR beta
B19: modified TCR consisting of β1 and αCR (TCR)
TCR alpha: B11 TCR alpha
TCR beta: B9 TCR beta
B20: modified TCR of the combination of βCR and α2 (TCR)
TCR alpha: B1 TCR alpha
TCR beta: B11 TCR beta
B21: modified TCR of the combination of βCR and α4 (TCR)
TCR alpha: B4 TCR alpha
TCR beta: B11 TCR beta
B22: modified TCR of the combination of βCR and α6 (TCR)
TCR alpha: B5 TCR alpha
TCR beta: B11 TCR beta
B23: modified TCR of the combination of βCR and α8 (TCR)
TCR alpha: B8 TCR alpha
TCR beta: B11 TCR beta
B24: modified TCR consisting of β9 and α8 (TCR)
TCR alpha: B8 TCR alpha
TCR beta: FRCQVQFYGLSENDEWTQDRAKPVTQIVSAEAWGRADCGFTSESYQQGVLSATILYEILLGKATLYAVLVSALVLMAMVKRKDSRG
B25: modified TCR consisting of β9 and α10 (TCR)
TCR alpha: B6 TCR alpha
TCR beta: B24 TCR beta
B26: modified TCR consisting of β7 and α9 (TCR)
TCR alpha: B2 TCR alpha
TCR beta: RLRVSATFWQNPRNHFRCQVQFYGLSENDEWTQDRAKPVTQIVSAEAWGRADCGFTSESYQQGVLSATILYEILLGKATLYAVLVSALVLMAMVKRKDSRG
B27: modified TCR consisting of β7 and α10 (TCR)
TCR alpha: B6 TCR alpha
TCR beta: B26 TCR beta
B28: modified TCR consisting of β9 and α9 (TCR)
TCR alpha: B2 TCR alpha
TCR beta: B24 TCR beta

target: CD3 subunits (CD3E, CD3G, CD3D, CD3Z) (human, UniProt P07766 23-207; P09693 23-182; P04234 22-171; P20963 22-164); assay: cell-based or functional assay
Sequence (P07766 23-207, chain 1 of 4): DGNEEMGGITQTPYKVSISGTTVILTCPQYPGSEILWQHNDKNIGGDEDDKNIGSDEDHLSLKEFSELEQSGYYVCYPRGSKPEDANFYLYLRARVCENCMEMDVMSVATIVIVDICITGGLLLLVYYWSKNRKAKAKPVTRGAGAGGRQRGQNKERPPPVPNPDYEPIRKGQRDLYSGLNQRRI
Sequence (P09693 23-182, chain 2 of 4): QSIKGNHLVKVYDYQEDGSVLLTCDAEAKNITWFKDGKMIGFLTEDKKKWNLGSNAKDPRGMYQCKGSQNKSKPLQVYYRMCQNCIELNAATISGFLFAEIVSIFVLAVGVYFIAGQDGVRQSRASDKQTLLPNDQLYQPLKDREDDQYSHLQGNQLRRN
Sequence (P04234 22-171, chain 3 of 4): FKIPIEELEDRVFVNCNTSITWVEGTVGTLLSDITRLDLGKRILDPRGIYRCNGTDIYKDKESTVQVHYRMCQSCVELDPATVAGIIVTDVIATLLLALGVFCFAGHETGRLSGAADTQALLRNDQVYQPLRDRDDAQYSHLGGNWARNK
Sequence (P20963 22-164, chain 4 of 4): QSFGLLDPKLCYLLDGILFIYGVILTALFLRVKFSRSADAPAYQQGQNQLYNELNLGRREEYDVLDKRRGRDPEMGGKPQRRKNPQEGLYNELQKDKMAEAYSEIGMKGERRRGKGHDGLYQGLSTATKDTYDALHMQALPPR

B1 and B2 cannot be ordered by “CD3-recruiting activity (CD3-positive proportion, N=3), CD3-stably expressing 293T cells” value (shortened to “CD3-recruiting activity”): no less than 20% for the first, no less than 20% for the second.

B3 and B4 cannot be ordered by “CD3-recruiting activity” value: no less than 20% for the first, no less than 20% for the second.

B5 and B6 cannot be ordered by “CD3-recruiting activity” value: no less than 20% for the first, no less than 20% for the second.

B7 and B8 cannot be ordered by “CD3-recruiting activity” value: no less than 20% for the first, no less than 20% for the second.

B9 and B10 cannot be ordered by “CD3-recruiting activity” value: no less than 20% for the first, no less than 20% for the second.

B11 and B12 cannot be ordered by “CD3-recruiting activity” value: no less than 80% for the first, no less than 80% for the second.

B13 and B14 cannot be ordered by “CD3-recruiting activity” value: no less than 80% for the first, no less than 20% for the second.

B15 and B16 cannot be ordered by “CD3-recruiting activity” value: no less than 80% for the first, no less than 80% for the second.

B17 and B18 cannot be ordered by “CD3-recruiting activity” value: no less than 80% for the first, no less than 80% for the second.

B19 and B20 cannot be ordered by “CD3-recruiting activity” value: no less than 20% for the first, no less than 80% for the second.

B21 and B22 cannot be ordered by “CD3-recruiting activity” value: no less than 80% for the first, no less than 80% for the second.

B23 and B24 cannot be ordered by “CD3-recruiting activity” value: no less than 80% for the first, no less than 20% for the second.

B25 and B26 cannot be ordered by “CD3-recruiting activity” value: no less than 20% for the first, no less than 20% for the second.

B27 and B28 cannot be ordered by “CD3-recruiting activity” value: no less than 20% for the first, no less than 20% for the second.

From patent US20220062341A1 (KIRIN, published 2022)
